Laboratory results from paper PMC3592466 (Nucleic Acids Research, 2012).

Target: T1, BcgI A subunit, E53A mutant (UniProt Q07605 1-637, E53A)
T1 sequence (looked up): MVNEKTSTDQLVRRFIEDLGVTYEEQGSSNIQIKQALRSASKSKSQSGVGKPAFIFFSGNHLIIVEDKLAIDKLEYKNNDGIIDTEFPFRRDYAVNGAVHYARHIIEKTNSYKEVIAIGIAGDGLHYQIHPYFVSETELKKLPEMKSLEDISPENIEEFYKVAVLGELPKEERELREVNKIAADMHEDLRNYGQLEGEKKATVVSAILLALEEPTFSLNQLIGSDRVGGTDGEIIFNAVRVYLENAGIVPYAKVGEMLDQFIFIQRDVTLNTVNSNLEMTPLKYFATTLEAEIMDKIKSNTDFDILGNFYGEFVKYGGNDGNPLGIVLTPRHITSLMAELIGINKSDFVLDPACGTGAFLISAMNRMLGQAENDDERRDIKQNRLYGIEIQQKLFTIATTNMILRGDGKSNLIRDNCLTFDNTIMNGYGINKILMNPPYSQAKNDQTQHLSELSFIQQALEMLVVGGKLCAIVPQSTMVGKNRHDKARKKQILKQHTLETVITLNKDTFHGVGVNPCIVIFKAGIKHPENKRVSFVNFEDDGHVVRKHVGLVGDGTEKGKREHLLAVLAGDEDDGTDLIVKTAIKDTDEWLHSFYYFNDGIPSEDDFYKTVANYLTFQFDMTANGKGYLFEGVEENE
Assay: native MS

B1: BcgI B subunit (natural protein, UniProt Q07606 1-341, looked up)
chain: MNNLIKYSTFLISDLFDVVIGKTIDGNKAQRNENGTPYITRKATRNGFEFMIDGEKEKLYSGKLPVITIGNETSKPFVQEFHFFTGTKVNICIPKLDLNRNHLLYITTMIENATKMFSYSYTINSTRLKSLKILLPIKGEEPDWDYMNTYISKILSNMEKNFDVQQNDGVSDLRSLKDLSWSQFKMDEIFSINSGVRLTKADMKPGNIPFIGATDSNNGITEFTSSTNASFDGNVLGVNYNGSVVENFYHPYKAVFSDDVKRLKLKNYPNNKHVLLFMKVVILQQKVKYAYGYKFNATRMKEQIILLPTKADGTPDYEFMEQYMMRMENKVVGRTTEKEAD
- binding result: binds
